Experimental data: patent US20220380409A1 (CALIFORNIA INSTITUTE OF TECHNOLOGY, published 2022)
Square brackets hold non-standard residues; d marks the D form. Ends that are not written are not given here. Pra = C#CC[C@H](N)C(=O)O; Az4 = not defined here; PEG = not defined here

T1: LISDAELEAIFD (SEQ ID NO:34)-Az4-PEG-Biotin (Plasmodium falciparum, reading uncertain)
T1 peptide: LISDAELEAIFD-{Az4-PEG-biotin}


How the values were obtained:
LISDAELEAIFD (SEQ ID …) = molecular target: T1, LISDAELEAIFD (SEQ ID …); test: in situ click bead screen of cyclic library C against LISDAELEAIFD-Az4-PEG-Biotin; hits formed a triazole linkage to the epitope peptide
GST-PvLDH = molecular target: T2, GST-PvLDH (Plasmodium berghei, UniProt P84793 1-313); test: ELISA: 5 uM biotinylated ligand on a streptavidin plate, GST-PvLDH overnight, antiGST-HRP detection (FIG. 10)
T2 construct: Printed as 'whole PvLDH' and 'GST-PvLDH'; also called whole PvLDH protein; not shown: glutathione S-transferase (GST) tag

PfLDH protein [1] = molecular target: T3, PfLDH protein (Plasmodium falciparum, UniProt Q27743 2-316); test: ELISA titration of PfLDH protein on the ligand (FIG. 11)
T3 construct: also called Plasmodium falciparum LDH protein

PfLDH protein [2] = molecular target: T3, PfLDH protein; test: in situ click bead screen of azide-modified cyclic library C with pfLDH and alkyne-modified hevwh anchor; hit found by triazole formation with the primary ligand

Row | Binder | binding result (LISDAELEAIFD (SEQ ID …)) | further results
1 | [Pra]RGGIL (triazole (positions not given here); not fully specified (bridges), On-bead library member; variable region only) [RGGIL (SEQ ID NO:5), hit 1 against LDH] | binds | 
2 | [Pra]KKIHL (triazole (positions not given here); not fully specified (bridges), On-bead library member; variable region only) [KKIHL (SEQ ID NO:6), hit 2 against LDH] | binds | 
3 | [Pra]ILYWK (triazole (positions not given here); not fully specified (bridges), On-bead library member; variable region only) [ILYWK (SEQ ID NO:7), hit 3 against LDH] | binds | 
4 | [Pra]PLKKG (triazole (positions not given here); not fully specified (bridges), On-bead library member; variable region only) [PLKKG (SEQ ID NO:8), hit 4 against LDH] | binds | 
5 | [Pra]HWSAN (triazole (positions not given here); also: biotinylated in plate assay, construct not described, Variable region only; The exact biotinylated construct used on the streptavidin plate is not described; also called Hit 6) [HWSAN (SEQ ID NO:11) peptide, triazole-cyclized] | binds | binding result (GST-PvLDH): binds
6 | HWSAN (staple (positions not given here); also: RCM between olefin-bearing non-natural residues, places not given here, biotinylated, also called RCM cyclic peptide; one of the RCM cyclized peptides) [RCM cyclized version of the HWSAN (SEQ ID NO:11) peptide] |  | EC50 (PfLDH protein [1]): 2.5 nM
7 | YLGHK (triazole (positions not given here); also: Az4 (azide residue) at position 1, ring closed through triazole, places not given here, Secondary ligand; It was found on bead by in situ click with alkyne-modified hevwh in the presence of pfLDH) [YLGHK (SEQ ID NO:14), hit 1 against pan pLDH] |  | binding result (PfLDH protein [2]): binds
8 | ELYKY (triazole (positions not given here); also: Az4 (azide residue) at position 1, ring closed through triazole, places not given here, Secondary ligand; It was found on bead by in situ click with alkyne-modified hevwh in the presence of pfLDH) [ELYKY (SEQ ID NO:19), hit 3 against pan pLDH] |  | binding result (PfLDH protein [2]): binds
